Laboratory results from publication PMC4380928.

Legend:
Experiment in all cases: peptide microarray probed with GST protein
Conditions in all cases: reference: unphosphorylated Y124 15-mer; sites Y124
GRB2 1-217 = GRB2 1-217 (UniProt P62993)
PIK3R3 (p55γ) 1-461 = PIK3R3 (p55γ) 1-461 (UniProt Q92569)
GRB2 SH2, 75-160 = GRB2 SH2, 75-160 (UniProt P62993)

Measured: binding against the reference

TSPAN2 (tetraspanin 2) 15-mers, each centred on one tyrosine (from UniProt O60636) pY124 15-mer
gained: all assays above
